Reference: article doi:10.1101/2022.11.08.515461 (bioRxiv, 2022)

Target: yeast dynein_(MOTOR)^MT-B (microtubule-bound mutant of the motor domain) (budding yeast | T. thermophilus) (UniProt P34945)
Assay: mass photometry

yeast dynein_(MOTOR)^MT-B (microtubule-bound mutant of the motor domain) (budding yeast | T. thermophilus), sequence (P34945 whole entry, change not shown, the tested form may be a part): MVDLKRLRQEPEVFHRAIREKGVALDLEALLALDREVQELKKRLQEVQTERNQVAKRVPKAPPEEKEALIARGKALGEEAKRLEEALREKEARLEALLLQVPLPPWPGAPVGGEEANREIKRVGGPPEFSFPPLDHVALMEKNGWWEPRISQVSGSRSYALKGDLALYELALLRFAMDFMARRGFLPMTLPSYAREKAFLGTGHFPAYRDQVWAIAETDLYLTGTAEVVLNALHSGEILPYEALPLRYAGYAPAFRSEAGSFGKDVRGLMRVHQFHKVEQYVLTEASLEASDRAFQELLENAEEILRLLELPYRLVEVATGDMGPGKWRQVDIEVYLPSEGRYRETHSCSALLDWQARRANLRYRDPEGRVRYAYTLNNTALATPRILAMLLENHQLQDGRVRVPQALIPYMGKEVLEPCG

B1: Pac1-SNAP (natural protein)
chain: MTNWQQQLPLTDTQKNELDKSVLRYLNWNYKQTVRHEHAQDYESVRHAIVTLSGFLLQESVDRQEFISNNDTSNESMVDIDELLLPKKWNSIVRLQKKIIELEQNTETLVSQIKDLNTQVSELAQFKPTTSNGTSAHNVLKWIPRNLPSCLINVESSVTSVKLHPNLPIVFVATDHGKLYAFDLFNYTIPLASLQSHTKAITSMDVLFTNYTNSSKKNYLVIVTASKDLQIHVFKWVSEECKFQQIRSLLGHEHIVSAVKIWQKNNDVHIASCSRDQTVKIWDFHNGWSLKTFQPHSQWVRSIDVLGDYIISGSHDTTLRLTHWPSGNGLSVGTGHEFPIEKVKFIHFIEDSPEIRFRTPSTDRYKNWGMQYCVSASRDRTIKIWEIPLPTLMAHRAPIPNPTDSNFRCVLTLKGHLSWVRDISIRGQYLFSCADDKSVRCWDLNTGQCLHVWEKLHTGFVNCLDLDVDFDSNVTPRQMMVTGGLDCKSNVFMR
modifications: JF646-SNAP-tag ligand on the SNAP tag (fluorescent labelling)
  stoichiometry N (Pac1 dimer per dynein (MOTOR) monomer): 1
